The values below come from publication PMC12416549 (2024).

Positions count from the first letter of the chain named. Numbers in names are those of the source.

T1: TNFR1 (Homo sapiens, UniProt P19438)
T1 chain: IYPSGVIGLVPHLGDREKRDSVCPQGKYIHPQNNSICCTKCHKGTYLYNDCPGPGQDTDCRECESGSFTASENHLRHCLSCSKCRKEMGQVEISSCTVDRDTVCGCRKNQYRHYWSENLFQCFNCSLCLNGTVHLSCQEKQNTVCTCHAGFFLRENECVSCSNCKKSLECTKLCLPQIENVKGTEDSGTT

B1: L41E (designed binder)
chain: MTLQELLREEALRRAEAEAFRYALELLAEKFPEQKEYLLDEAEEIESQIRSLSGVDVEDVRKFLDKEWAWVKELLAEHPAELAEVEAARAARLAELRAEVEAKVAA
B2: F20R (designed binder)
chain: B1 chain with F20R, E41L
B3: E18K (designed binder)
chain: B1 chain with E18K, E41L
B4: E18N (designed binder)
chain: B1 chain with E18N, E41L
B5: A69F (designed binder)
chain: B1 chain with E41L, A69F
B6: F20Q (designed binder)
chain: B1 chain with F20Q, E41L
B7: A15G (designed binder)
chain: B1 chain with A15G, E41L
B8: L24V (designed binder)
chain: B1 chain with L24V, E41L
B9: K66Y (designed binder)
chain: B1 chain with E41L, K66Y
B10: K30E (designed binder)
chain: B1 chain with K30E, E41L
B11: L39N (designed binder)
chain: B1 chain with L39N, E41L
B12: E58C (designed binder)
chain: B1 chain with E41L, E58C
B13: I49E (designed binder)
chain: B1 chain with E41L, I49E
B14: A11R (designed binder)
chain: B1 chain with A11R, E41L
B15: Q48D (designed binder)
chain: B1 chain with E41L, Q48D
B16: A102V (designed binder)
chain: B1 chain with E41L, A102V
B17: A90T (designed binder)
chain: B1 chain with E41L, A90T
B18: L93N (designed binder)
chain: B1 chain with E41L, L93N
B19: V60K (designed binder)
chain: B1 chain with E41L, V60K
B20: L75V (designed binder)
chain: B1 chain with E41L, L75V
B21: R97F (designed binder)
chain: B1 chain with E41L, R97F
B22: A88Y (designed binder)
chain: B1 chain with E41L, A88Y
B23: R13C (designed binder)
chain: B1 chain with R13C, E41L
B24: A17Y (designed binder)
chain: B1 chain with A17Y, E41L
B25: F20I (designed binder)
chain: B1 chain with F20I, E41L
B26: A15I (designed binder)
chain: B1 chain with A15I, E41L
B27: L52T (designed binder)
chain: B1 chain with E41L, L52T
B28: L41W (designed binder)
chain: B1 chain with E41W
B29: A105G (designed binder)
chain: B1 chain with E41L, A105G
B30: E86H (designed binder)
chain: B1 chain with E41L, E86H
B31: A88P (designed binder)
chain: B1 chain with E41L, A88P
B32: A102N (designed binder)
chain: B1 chain with E41L, A102N
B33: Q34K (designed binder)
chain: B1 chain with Q34K, E41L
B34: L64R (designed binder)
chain: B1 chain with E41L, L64R
B35: Q34H (designed binder)
chain: B1 chain with Q34H, E41L
B36: L41S (designed binder)
chain: B1 chain with E41S
B37: E16S (designed binder)
chain: B1 chain with E16S, E41L
B38: V55F (designed binder)
chain: B1 chain with E41L, V55F
B39: V100D (designed binder)
chain: B1 chain with E41L, V100D
B40: E101I (designed binder)
chain: B1 chain with E41L, E101I
B41: A19L (designed binder)
chain: B1 chain with A19L, E41L
B42: A88W (designed binder)
chain: B1 chain with E41L, A88W
B43: A102K (designed binder)
chain: B1 chain with E41L, A102K
B44: E43F (designed binder)
chain: B1 chain with E41L, E43F
B45: L93R (designed binder)
chain: B1 chain with E41L, L93R
B46: S47R (designed binder)
chain: B1 chain with E41L, S47R
B47: E81K (designed binder)
chain: B1 chain with E41L, E81K
B48: A76T (designed binder)
chain: B1 chain with E41L, A76T
B49: A19K (designed binder)
chain: B1 chain with A19K, E41L
B50: A91L (designed binder)
chain: B1 chain with E41L, A91L
B51: K103P (designed binder)
chain: B1 chain with E41L, K103P
B52: A91P (designed binder)
chain: B1 chain with E41L, A91P
B53: E44D (designed binder)
chain: B1 chain with E41L, E44D
B54: L38F (designed binder)
chain: B1 chain with L38F, E41L
B55: L27Y (designed binder)
chain: B1 chain with L27Y, E41L

In the experiment the target is T1, TNFR1. In words: yeast display SC50.
B1: the “apparent Kd (screen)” value came out at 2.25 nM.

Take B2: the “apparent Kd (screen)” value turned out to be 10.4 nM.

Consider B3, for which the “apparent Kd (screen)” value came out at 0.49 nM.

Regarding B4, the “apparent Kd (screen)” value is 0.49 nM.

Regarding B5, the “apparent Kd (screen)” value worked out at 0.956 nM.

B6: the “apparent Kd (screen)” value was determined as 2.25 nM.

As for B7, the “apparent Kd (screen)” value was determined as 0.539 nM.

Consider B8, for which the “apparent Kd (screen)” value is 0.653 nM.

In the case of B9, the “apparent Kd (screen)” value came to 0.49 nM.

B10: the “apparent Kd (screen)” value was 0.49 nM.

As for B11, the “apparent Kd (screen)” value came out at 2.48 nM.

B12: the “apparent Kd (screen)” value came out at 0.653 nM.

As to B13, the “apparent Kd (screen)” value came to 2.48 nM.

With B14, the “apparent Kd (screen)” value stood at 0.49 nM.

On to B15, for which the “apparent Kd (screen)” value is 22.2 nM.

For the molecule B16, the “apparent Kd (screen)” value is 0.539 nM.

B17: the “apparent Kd (screen)” value worked out at 0.79 nM.

For B18, the “apparent Kd (screen)” value came out at 0.79 nM.

Consider B19, for which the “apparent Kd (screen)” value is 3 nM.

For B20, the “apparent Kd (screen)” value is 0.593 nM.

For B21, the “apparent Kd (screen)” value turned out to be 0.49 nM.

Turning to B22, the “apparent Kd (screen)” value came out at 1.05 nM.

As for B23, the “apparent Kd (screen)” value was 0.539 nM.

Turning to B24, the “apparent Kd (screen)” value was found to be 0.593 nM.

As to B25, the “apparent Kd (screen)” value was 1.05 nM.

Turning to B26, the “apparent Kd (screen)” value came out at 0.593 nM.

B27: the “apparent Kd (screen)” value came to 0.593 nM.

B28: the “apparent Kd (screen)” value came out at 2.25 nM.

As to B29, the “apparent Kd (screen)” value is 0.869 nM.

Regarding B30, the “apparent Kd (screen)” value stood at 0.79 nM.

B31: the “apparent Kd (screen)” value was found to be 2.05 nM.

Turning to B32, the “apparent Kd (screen)” value came to 0.539 nM.

For the molecule B33, the “apparent Kd (screen)” value worked out at 0.653 nM.

Turning to B34, the “apparent Kd (screen)” value amounted to 5.31 nM.

Turning to B35, the “apparent Kd (screen)” value was determined as 0.869 nM.

With B36, the “apparent Kd (screen)” value was found to be 1.16 nM.

Take B37: the “apparent Kd (screen)” value worked out at 0.653 nM.

Take B38: the “apparent Kd (screen)” value amounted to 0.869 nM.

Turning to B39, the “apparent Kd (screen)” value came out at 0.593 nM.

Take B40: the “apparent Kd (screen)” value is 0.49 nM.

For the molecule B41, the “apparent Kd (screen)” value is 2.05 nM.

Take B42: the “apparent Kd (screen)” value is 0.49 nM.

As to B43, the “apparent Kd (screen)” value was found to be 0.539 nM.

As to B44, the “apparent Kd (screen)” value is 0.653 nM.

Regarding B45, the “apparent Kd (screen)” value was 0.869 nM.

As to B46, the “apparent Kd (screen)” value stood at 0.49 nM.

As to B47, the “apparent Kd (screen)” value stood at 0.539 nM.

Consider B48, for which the “apparent Kd (screen)” value worked out at 0.405 nM.

B49: the “apparent Kd (screen)” value worked out at 10.4 nM.

Regarding B50, the “apparent Kd (screen)” value came out at 0.539 nM.

For B51, the “apparent Kd (screen)” value was 0.539 nM.

In the case of B52, the “apparent Kd (screen)” value stood at 0.49 nM.

For the molecule B53, the “apparent Kd (screen)” value was found to be 7.78 nM.

B54: the “apparent Kd (screen)” value is 0.653 nM.

As for B55, the “apparent Kd (screen)” value is 0.539 nM.
